Laboratory results reported in patent US20030134779A1, “Method and composition for treatment and/or prevention of antibiotic-resistant microorganism infections” (priority 2002, published 2003).

Assays:
[1] = test system: β-lactamase (BlaZ) gene expression in S. aureus strain SHY97-4320; assay: BlaZ gene expression, real-time quantitative RT-PCR, and total RNA; type: cell-based, Staphylococcus aureus
Procedure: Fresh MHB containing or not 8 μg/ml of penicillin G and/or 1 mg/ml of bovine LF (2×2 factorial design) was adjusted to an optical density at 540 nm of 0.04 with an overnight culture of S. aureus and then incubated at 37° C. with agitation (150 rpm). After 4 and 22-h of incubation, aliquots were removed to determine bacterial growth by viable count (colony forming unit per ml, cfu/ml), measuring the culture turbidity (OD540nm) with a spectrophotometer Philips PU and to measure β-lactamase activity in bacterial cells. Following culture under the same condition, bacterial cells were collected for RNA extraction.
Total bacterial RNA was prepared using the RNeasy minikit (Qiagen, Mississauga, ON, Canada). Washed bacteria were first treated with 50 μg/ml of lysostaphin (GramCracker, Ambion, Austin, Tex.) for 10 min at 37° C. and RNA was purified according to the manufacturer's protocol. Contaminating DNA was removed from total RNA by using 1 U of Rnase-free Dnase I (Gibco Life Technologies, Grand Island, N.Y.) in a 10 μl reaction mixture containing approximately 50 ng of total RNA per μl and 20mM Tris-HCl (pH 8.4), 2 mM MgCl2 and 50 mM KCl. The reaction mixture was incubated for 15 min at room temperature, and the Dnase I was inactivated by adding 1 μl of 25 mM EDTA to the mixture and incubating for 10 min at 65° C. before assessing quantity and purity. Amount of cellular RNA was then determined by measuring the OD260 nm and OD280 nm.
Real-Time fluorescence-based 5′ nuclease PCR which is a widely accepted method for measuring gene expression levels was used to quantify β-lactamase BlaZ RNA by RT-PCR on ABI Prism™ 7700 (TaqMan® ) sequence detector (PE Applied Biosystem, Foster City, Calif.). The forward primer, reverse.primer, and TaqMan probe for Real-Time RT-PCR amplification were designed with the PrimerExpress software (PE Applied Biosystem) to specifically amplify the. S. aureus BLAZ gene. Briefly, RNA (50 ng) was added to a 50 μl reaction mixture containing 25 μl of 2×RT-PCR One-Step Universal Master Mix, 1.25 μl of 40×MultiScribe and Rnase Inhibitor Mix, 4.5 μl of the forward primer (10 μM, 5′-[…]-3′, SEQ ID NO:3), 4.5 μl of the reverse primer (10 μM, 5′-[…]-3′, SEQ ID NO:4), and 1.25 μl of TaqMan probe (10 μM, 6FAM-[…]-TAMRA, SEQ ID NO:5). Reverse transcription with the recombinant Moloney Murine Leukemia Virus (M-MuLV) Reverse Transcriptase (0.25 U/μl) was conducted at 48° C. for 30 min. After initial activation of AmpliTaq Gold DNA polymerase (1.25 U/μl) at 95° C. for 10 min, 40 PCR cycles of 95° C. for 15 s and 60° C. for 1 min were performed. The cycle threshold value (CT), indicative of the quantity of target gene at which the fluorescence exceeds a pre-set threshold, was determined and compared to the CT of a standard curve containing known amounts of mRNA (1.1×10^2 to 1.1×10^9) from the BLAZ gene of S. aureus obtained by in vitro transcription. Statistical analysis were done on the LOG 10 of number of copies.

S. aureus SHY97-4320 = assay: WGA-gold labelling of cell wall and cell division, electron microscopy; type: cell-based, Staphylococcus aureus
Procedure: To investigate the mechanism of action of LF in combination with penicillin G on cell division, transmission electron microscopy was also performed on thin section of a β-lactamase producing S. aureus SHY97-4320. Bacterial cells were grown in MHB containing 8 μg/ml of penicillin G, 1 mg/ml LF alone or in combination for 4-h at 37° C. with agitation at 150 rpm. Bacteria were harvested and incubated or not for 2-h in 0.02 M Tris (pH 7.4) containing 0.15 M NaCl, 0.5 mg/ml and 50 μl of wheat germ agglutinin (WGA) gold (Sigma Chemicals, St-Louis, Mo.) for 2 h. Bacteria cell morphology was evaluated by transmission electron microscopy as previously described. Effects of treatments were evaluated and compared by “t” test. […] The WGA has an affinity for N-acetyl-β-D-glucosamyl residues and N-acetyl-β-D-glucosamine oligomer. After treatment with LF, S. aureus cells were less covered (P<0.005) with WGA-gold (FIG. 12 and Table 3).

B1: LF: bovine lactoferrin, 80-kDa iron-binding glycoprotein found in milk (protein, UniProt P24627 20-708, looked up)
Lactotransferrin: APRKNVRWCTISQPEWFKCRRWQWRMKKLGAPSITCVRRAFALECIRAIAEKKADAVTLDGGMVFEAGRDPYKLRPVAAEIYGTKESPQTHYYAVAVVKKGSNFQLDQLQGRKSCHTGLGRSAGWIIPMGILRPYLSWTESLEPLQGAVAKFFSASCVPCIDRQAYPNLCQLCKGEGENQCACSSREPYFGYSGAFKCLQDGAGDVAFVKETTVFENLPEKADRDQYELLCLNNSRAPVDAFKECHLAQVPSHAVVARSVDGKEDLIWKLLSKAQEKFGKNKSRSFQLFGSPPGQRDLLFKDSALGFLRIPSKVDSALYLGSRYLTTLKNLRETAEEVKARYTRVVWCAVGPEEQKKCQQWSQQSGQNVTCATASTTDDCIVLVLKGEADALNLDGGYIYTAGKCGLVPVLAENRKSSKHSSLDCVLRPTEGYLAVAVVKKANEGLTWNSLKDKKSCHTAVDRTAGWNIPMGLIVNQTGSCAFDEFFSQSCAPGADPKSRLCALCAGDDQGLDKCVPNSKEKYYGYTGAFRCLAEDVGDVAFVKNDTVWENTNGESTADWAKNLNREDFRLLCLDGTRKPVTEAQSCHLAVAPNHAVVSRSDRAAHVKQVLLHQQALFGKNGKNCPDKFCLFKSETKNLLFNDNTECLAKLGGRPTYEEYLGTEYVTAIANLKKCSTSPLLEACAFLTR
[1]; LF 1 mg/ml and/or penicillin G
  BlaZ total: total number of copies of BlaZ gene mRNA/ml of culture: 5.6 × 10^5 copies/ml of culture
  BlaZ: number of copies of BlaZ gene mRNA/50 ng of mRNA: 1.4 × 10^4 copies/50 ng of mRNA
[1]; LF, P<0.001
  reduction of the mRNA level in bacteria: 35%
[1]; adjusted for an OD540nm of 1.0, LF 1 mg/ml and/or penicillin G
  RNA: 1.88 ± 0.68 :g/ml
[1]; simultaneous addition of 1 mg/ml of LF
  penicillin G-induced increase of BlaZ mRNA: completely prevented
S. aureus SHY97-4320; LF 1 mg/ml alone or in combination with penicillin
  cell division: Groups of multiple undivided cell
S. aureus SHY97-4320; after treatment with LF, P<0.005
  coverage of cells with WGA-gold: less covered
